The source of these data is a protein production outcome set (Wang et al. 2014).

The data set can be described thus: label from the status in PepcDB records.
For “MLVRNICKFTQVMGRFRVVVNPRDYCHLAPLKRSRYHQRSEFGCRPLCSNAAGYEVSWAAPPASGSSGGMFWAFSAAFTLNLFGGADEKEETPEEKLIKTIKRSILCIQREQYDKAEQMLHLALRMAQDIQSKDGITYVFDLMANLAMEREQFKKAEKIFTDVMKRLFAEGHTEESPKILHISSKIAHMSQLQGDLEKSFQGFTWTLQQLAKLLEKMPDDKDILELYGLTKNWFGQLLMKQGKYLEAKNLFKEAFDTLINVYGAVNDASVTILNNISVAYVNLEKYAEARETLLEAMELTKELKDATQEGILQANLGLVYLREGLMSQAENACRLAWKLGKQHQNPDAVEQAEYCLNEIKTTLNGEKRQ”, the protein production entry was “failed”. The entry for “MLVVAVVFPVLAFIFLGGVVFYTRKQNKPKNKRAASVEVDENNEDGVKVNNSELKKLTKIKKIKGSKIYLKNGAIRVNLGISSPDFELLTDEEQTSFEDCLMMSALSLNFPVQFHTTLKKIEIKEPAELVEKTMNSSDSLISDNLRDYCSQLYSSYKKLEHEKGIFVRKSFCTVGAYLPDRDEKKVLNELQSRIDNIAGGLSRARMKINLLNSESTAQILADLFNRGKNIKIETLEKDGAFDLYSEGVGQVVEVQEG” is “failed”; for “MLYFEDLRPGQLFLSAEHTLSEQEIIAFARQFDPQPFHTDPEAARQTFFNGLAASGWHTSSLSMRLVAESELGRAANGLIGMQIDKMRWPQPSRPGDTLQVEVEVLDKRRSSSQPGFGVVKVSWTTRNQRGETAMQLECAIWLQCRSKAEAAAPELAGAK” it is “failed”; for “MLYHLVMLEPEGEGAMDRIMEAMAILDGLAPELPGLTEFRHGPNRDFEQKSERYPYGFLCTFTDKAALDAYAVHPTHQRAGGMLVASCRNGADGILVVDLEV” it is “not failed”. Take “MLYLFPLLAVVIWAGNAIVNKLSFGIIAPEAIAFYRWFFAMLILTPFMLKSVWKNRRRIIPLLPKLATLASLGMVLNQSLAYFAAATTTATNMALINSLVPMISLFLAVPLLKQRLSPLVLGGSVISLLGLVFMLSHGDIANLAIGVTEGDLLLLISAFVYALYGVLLKRWQLPISTWESVYIQGIIAVLMLTPLLFSAPSIAISSQATPLIVYAAFGASLIAPWAWINGINKLGAERTSIFFNLMPILAAIFAAIILNETLAIYHYLGGTMVILGVMLVQIKPKPKTTTIITCAE”: the protein production result is listed as “failed”.

For the sequence “MLYNSYMLLTYQFKLNPTSEQVVILETWGELLRRHWNYALGERLDWLRRTRSLLDRCSLVSEPIGGIPDKPDYYTQASDLQQTKDLFPDYKNIYADCQQQNLMRLDKAWKRWLIPDKKGNRGGKPRFKKRGDISSFTFPRVNSPKAGAHLTGNILKLSKIGEIEVILHRPIPNGSEIKQATILSKSDGWYVSFSLEDKTVPELLPIDEIKTATGIDVGLEKFLTTAHGQSIEVPQYSRKTQSKLARQQRKLARKIHGSKNYQKQASRVARIHLHVARQRKEFHYQVAHWLVKSYDLIVFENLNIRGLARTRLAKSILDVAWGAFLQIMQAVAVRRGKHTRGVDPRGTSINCSGCGQRVEKTLAVRVHNCSCGLVIDRDWNSAINLLNYGSVGLPIPGCGGLGVSQPVKQQVSYVNLRCSRYTACS”, the protein production entry is “failed”.

As for “MLYPNERKSSVHAIPYQDQLKQVQSAVDEFQKANGGLLPIQTKDMSTPLYQKYPIDFNRLAPRYIAEPPSTAFESGGDYQYVLVDVENDPTVKLIDLKMAEKIRDVKLRIQMYRQEHQYPPYKDVLSRDLFTLDEKKLGDGSSLTVTSPISGNSLPLMIDGDGEIYADYRTELASCLKKSKKTFKPGTEIQDMIWHETPFVPAFSVKYTVNDKQEPVFLENDMKKELEHHHHHH”, the protein production result is on record as “not failed”. The entry for “MLYVVGIGPGNEEYFTKEAENALNSVDLIVCYTGYKKYIERFDTEIYVSGMTKEVERVEYALKEAENKNVALVSNGDATIYGLASLAYELNEKNLHNVTINVVSGL” is “failed”. The entry for “MMAPNQFSSGDVIADRRADYARMLAESGDYPAAAELMEQALELAPRWTAGWFRFGEYHEKAGETAKAVAAYEKVAELDAEGLFAAELKLAVLGAAETPEQPPSRYVEGLFDDYADRFETSLVEKLDYSVPQKLAELIGKAATGDAFDTIVDIGCGTGLLGIEIRSLAKRLEGFDISQNMLAKADEKSLYDHLGQADLSLDAEASGLFTPVLTQHRADLVAAADVMMYLGSLETVMPLVSALLKPSGFFAFSVEDAGDEQGFVLRESLRYAHSKSYVIDLLERSGFSPMEIRKTTIRKDAGKPLSGILFLARAKA” is “failed”; for “MMARVEKLRELMKENNLQGFLVTSPYNLRYLTNFTGTTGLAMITLDKAFFVTDFRYTEQAAEQATGFTIVKNTGHIFDEVADLAERLQLDNLAFEETQVSFADYSLLEEILPCELVPVMGLIEELR” it is “not failed”. For “MMDCDHLLRLGMTAKKILENGKGILAADETPKTLGRRFEKLGITNTEENRRKFREILFSTKGIERYIGGVILNQETFEQTSGSGVPLTELLKKKGIEIGIKLDKGLIDYKEKEKISVGLEDLDLRCKSSAFKDATFAKWRSLFYFYDGIPSEDCINENCSILAKYAIICQKNGLVPIVEPEVFLEGDYSMKRSYEVTRQILSTLMKYLNYELVYIPGVLIKASYVTSGQLSNEKYTPKKVATFTLRALLSTIPCGIPGIVFLSGGHGSEDAIGFLNAINMERGCRTWSLSFSFARALTDGVLETWRGDDSNIEEAQKILLETSFKACRGAEGKLWDQE”, the protein production entry was “not failed”. For “MMDIVEIIIGFIALLMTARIFLERSRARKLLYLCCLSFCISALIALYVDSPMGGIVAITYFICSTISSNAIAYTIEQTKHIE” the value was “failed”; for “MMDYLITQNGGMVFAVLAMATATIFSGIGSAKGVGMTGEAAAALTTSQPEKFGQALILQLLPGTQGLYGFVIAFLIFINLGSDMSVVQGLNFLGASLPIAFTGLFSGIAQGKVAAAGIQILAKKPEHATKGIIFAAMVETYAILGFVISFLLVLNA”, “not failed”; for “MMFLHGSRQAVIAALVGLVITVTAFSYLRYQENQVVHDALEAETYNLQRDIRQSLVSHLFVAELLAREWERSDLSIEERWKENADIVTLYYQNVQGITWLNDELDIELIYPQNEQPELLGTPFAKTPLLEKLKASEGNRHAMMGPAGNLGRISSDIAIFVRVEQQDQTHGFLGFVISLQSLFNNVVRSNISEGFQLSVRSDNDILYQFAGDTSLREEWSHFHSLQLVGNSWELSVWPTAGHLEQLRGGISLAALIAGLLVTSMLTFVLYILGQSRFKAQQLADSNIELYSEIDERERIEKQMAYLAEHDSLTGLVNRNALKRILGEWLETESPHKKAALLFIDLDRFKEVNDALGHTVGDELLRRVARRITKLAPKGSVLARAGGDEFLLAIAKPDSRESIIKLSEQMLQALDTHFFVDVYELFISASIGVTFADDADFNAEYFIRNADTALYQAKEHGRNTYKVYDKAIHRDLTKKLELVKRLRHAVSKQQLTVYYQPKVELGSRRISGLEALVRWVDDDGSIIPPDEFIPLAEDTGLIIPISEYVMEEAFLQLKQWHELGFDELSIAINISGKQLHLADLVDDIMERVNEAQIPPNKVELELTEQVFIENIQSHTRFMHSVREQGMSLAIDDFGVGYSSLSYLKNFPVTSLKIDRSFVRDLPHNEDDATITQTIISLARNLNLQLVAEGIETEEQVEFLLQRECSTGQGFLFSKPVPARQITELLQQYKGLIPIQIA”, “failed”. For “MMGSVLPAEALVLKTGLKAPGLALAEVITSDILHSFLYGRWRNVLGEQLFEDKSHHASPKTAFTAEVLAQSFSGEVQKLSSLVLPAEVIIAQSSIPGEGLGIFSKTWIKAGTEMGPFTGRVIAPEHVDICKNNNLMWEVFNEDGTVRYFIDASQEDHRSWMTYIKCARNEQEQNLEVVQIGTSIFYKAIEMIPPDQELLVWYGNSHNTFLGIPGVPGLEEDQKKNKHEDFHPADSAAGPAGRMRCVICHRGFNSRSNLRSHMRIHTLDKPFVCRFCNRRFSQSSTLRNHVRLHTGERPYKCQVCQSAYSQLAGLRAHQKSARHRPPSTALQAHSPALPAPHAHAPALAAAAAAAAAAAAHHLPAMVL” the value was “failed”; for “MMHISVGATEMSWLSSLKSVFSPSQEVKEDDVQTILQSYSLENSSFVLKDRITQINVEGRILQLTIKTFPEEADHLQQIHDELADALQKAGIQELNLHVIQQKTAPRTEPKSSSSTTSSSSHLPPVVDASASPTPDPNNPPIQKKAPIQSEVPAHPRIKNVILVSSGKGGVGKSTTTVNLALALQKQGLKVGVLDADIYGPSIPTMLGNAGRTPKIENENFVPLDAYGLAVLSIGHLTGDNNTPVAWRGPKATGALMQLFNQTLWPDLDVLVIDMPPGTGDIQLTLAQRIPVTGALIVTTPQNVALLDASKGIELFNRVGIPVVGVIENMSTHICSNCGFEEQIFGVGGGDKLSEQYDIPLLGRLPLNAQIRENADKGQPSVIAQDTAAESYQMIAQALWTRVEQLPQRARDDKRIFLEHHHHHH”, “failed”; for “MMHYGVLALTFLSVNLDFFLMLVFLLKKYRLWQVLLGYLLGNLILLTASFFVGKALTLFLPEWLLGFLGVLPIWLAFHDDDDDTADRAGGSPVINVLVTYLAVCAGCNLSIFLPVLVGESMVHFVMTLGFIGILTMLVVLIINQVAEIKAVQKQIAAHGERLMKICYVVIGLYVFWDSGLISHLIAFL”, “failed”.

For “MMINRINLTDIRSFVLIARLGNFTKAAETLDVSRSHVSRQISSLEKQMGVTLLIRTTRTLRLTEAGKHFYHQCEQALHTIDQALLSAVDDVEKVQGEIKINCVGGYLGEVFLADIVNTFMQQYPDVSISLDFSSNRVDLIEEEFDIAFRMGSLEDSGFVAKKLLDIEMGTLASPKYLQQYGRPSHPKELQQHHCLTGSVRKWHFQSLVNKEHYDVSIKGNLQCKNGRVLVAGAIAGNGIIRVPLIYCQQELDDKKLVQVFEEWGIPTVDFSAIYHRDRYQPKRIRTFIDFVKQYSDSLFT”, the protein production entry was “failed”. For “MMKEFTPAPDSASIVSVTDRVKPVALGMGVTSVHFLGDRAAFVGGEENVAFVDSQGEITTVAVHGGGILSTASDGKRLVMGGDDGKVVSLDAKGEVTLLATDPKRRWIDAVALHADGAFAWSAGKTATVKSGKTEEKSLEVPSTVGGLAFAPKGLRLAIAHYNGATLWFPNMAASAEFLPWAGSHHAVTFSPDNKFLVTAMHEPALHGWRLADNRHMRMTGYPGRVRSMSWSAGGKALATSGADTVILWPFGSKDGPMGKEPAMLAPLQARVSVVACHPKNDILAAGYSDGTVLMVRLEDGAEILVRRNGTPPVAALAWNAKGTLLAFADENGDGGLLEL” the value was “failed”; for “MMKEMTVQQMTEKVLNKESLFILDVRNESDFRDWKIEGENFAYLNVPYFELVHGVDSIVDRLPKDQDIVVVCAKGGSAAFVAEQLAEAGFDNVYTLAGGMQAWSEHLHQAKVYEDDQLKIYQFIRVGKGCLSYMVLSGDEALVVDPLRFIDVYEQVAQQEGVTITHIVDSHLHADHLSGGKALAERTGAAYYLMKSEGAVFDFEPLEQHETIDFENVHLEVLAVKTPGHTPGSVSFFVNGKWLFSGDTIFVGGLGRPDLGGKVAEWAEDLYHTVYEKVAAMADDVIVLPAHYANLDEEINAEGYVGDTLGRIRARNEMMQNKAKDEFIDLVIQGAKTETPPNFEDIVAINRGLKTVDIETQRELEIGPLEHHHHHH”, “not failed”; for “MMKIYLIEHVIGAVAYDENGNIVDYITNPRDLGKITEELLNNEKGIPFSATVELLKKVNPQEVVVENEAEVPKLQALGYRVSYEPYSKVSRIFRESLPKVAIDIKFASNEEDYYNFLHELSLEYTRRKLRSAAQKRDLLAIQAVRAMDDIDKTINLFSERLREWYSIHFPELDKLIEDHEEYATIVSRFGDRGFLTIDSLKELGFNEQRINRILDAAKKSIGADISEDDLSAMRMIANTILDLYNIRRNLNNYLEGVMKEVAPNVTALVGPALGARLLSIAGSLDELAKMPASTIQVLGAEKALFRALRSGGRPPKHGIIFQYPAIHTSPRWQRGKIARALAAKLAIAARVDAFSGRFIGDQLNEQLKKRIDEIKEKFAQPPPKKPQQQKPQQPQKQQAKGKKGGKRRGKRK”, “failed”.
